Experimental data reported in patent US20080026996A1, “Selective Vpac2 Receptor Reptide Agonists” (ELI LILLY AND COMPANY, priority 2004, published 2008).
Substitutions are numbered along the chain they refer to. Names and notes keep the numbering of the source. Where no end group is shown, it is not given here. [ ]: non-standard residue; d: D form. The star is where a group is joined. Orn = NCCC[C@H](N)C(=O)O; Hexanoyl = CCCCCC(=O)*; Aib = CC(C)(N)C(=O)O

B1: P154 (peptide)
peptide: Hexanoyl-HSDAVFTDNYTRLRKQVAAKKYLQSIKNGGPSSGAPPPS
B2: P291 (peptide)
peptide: Hexanoyl-HSDAVFTDNYTRLR[Aib]QLAA[Aib]KYLQSIKNKRYGGPSSGAPPPS
modifications: ends and bridges not checked
B3: P344 (peptide)
peptide: HSDAVFTDNYTXLRXQVAAXKYLQSIKNKRYGGPSSGAPPPS
modifications: N-terminal hexanoyl (C6); Orn at 12; Aib at 15, 20
B4: P75 (peptide)
peptide: B3 peptide with X12R, X15K, X20K, K29N
B5: P68 (peptide)
peptide: B3 peptide with F6Y, X12R, X15K, X20K
B6: P69 (peptide)
peptide: B3 peptide with V5W, X12R, X15K, X20K
B7: P63 (peptide)
peptide: B3 peptide with F6I, X12R, X15K, X20K
B8: P62 (peptide)
peptide: B3 peptide with V5T, X12R, X15K, X20K
B9: P74 (peptide)
peptide: B3 peptide with X12R, X15K, X20K, K27Q
B10: P66 (peptide)
peptide: B3 peptide with F6V, X12R, X15K, X20K
B11: P64 (peptide)
peptide: B3 peptide with F6L, X12R, X15K, X20K
B12: P65 (peptide)
peptide: B3 peptide with F6T, X12R, X15K, X20K
B13: P76 (peptide)
peptide: B3 peptide with X12R, X15K, X20K, R30I
B14: P70 (peptide)
peptide: B3 peptide with V5Y, X12R, X15K, X20K
B15: P121 (peptide)
peptide: Hexanoyl-HSDAVFTDNYTRLRKQVAAKKYLQSIKNKKGGPSSGAPPPS
B16: P140 (peptide)
peptide: MHSDAVFTDNYTRLLAKLALQKYLQSIKNKRYGGPSSGAPPPS
modifications: N-terminal methionine added (M-)
B17: P241 (peptide)
peptide: Hexanoyl-HSDAVFTDNYTRL[Aib]KQLAAK[Aib]YLQSIKNKRYGGPSSGAPPPS
modifications: ends and bridges not checked
B18: P329 (peptide)
peptide: HSDAVFTDNYTXLRXQVAAXKYLQSIXNXGGPSSGAPPPS
modifications: N-terminal hexanoyl (C6); hR at 12, 27, 29; Aib at 15, 20
B19: P270 (peptide)
peptide: Hexanoyl-HSDAVFTDNYTRLRKQVAAKKYLQSIKQKGGPSSGAPPPS
B20: P143 (peptide)
peptide: Hexanoyl-HSDAVFTDNYTRLRKQMAAQKYLNQLKKGGPSSGAPPPS
B21: P342 (peptide)
peptide: Hexanoyl-HSDAVFTDNYTRLR[Aib]QVAA[Aib][Orn]YLQSIKNKRYGGPSSGAPPPS
modifications: ends and bridges not checked
B22: P251 (peptide)
peptide: Hexanoyl-HSDAVFTDNYTRLQKQVAAK[Aib]YLQSIKNKRYGGPSSGAPPPS
modifications: ends and bridges not checked
B23: P115 (peptide)
peptide: Hexanoyl-HSDAVFTDNYTRLRKQVAAKKYLQTIKNKRYGGPSSGAPPPS
B24: P150 (peptide)
peptide: Hexanoyl-HSDAVFTDNYTRLRKQVAAQKYLQSIKNKRYGGPSSGAPPPS
B25: P172 (peptide)
peptide: Hexanoyl-HSDAVFTDNYTRLQKQVAAKKYLQSIKNKRYGGPSSGAPPPS
B26: P120 (peptide)
peptide: Hexanoyl-HSDAVFTDNYTRLRKQVAAKKYLQSIKNKRYGGPSSGAPPPC
B27: P135 (peptide)
peptide: Hexanoyl-HSDAVFTDNYTRLLAKVAAKKYLQSIKNKRYGGPSSGAPPPS
B28: P346 (peptide)
peptide: Hexanoyl-HSDAVFTDNYTR[Aib]R[Aib]QVAA[Aib]KYLQSIKNKRYGGPSSGAPPPS
modifications: ends and bridges not checked

How the values were obtained:
Experiment in all cases: cell-based or functional assay
[1] = target: T1, rat VPAC1 receptor (rat, UniProt P30083 31-459)
T1 sequence (looked up): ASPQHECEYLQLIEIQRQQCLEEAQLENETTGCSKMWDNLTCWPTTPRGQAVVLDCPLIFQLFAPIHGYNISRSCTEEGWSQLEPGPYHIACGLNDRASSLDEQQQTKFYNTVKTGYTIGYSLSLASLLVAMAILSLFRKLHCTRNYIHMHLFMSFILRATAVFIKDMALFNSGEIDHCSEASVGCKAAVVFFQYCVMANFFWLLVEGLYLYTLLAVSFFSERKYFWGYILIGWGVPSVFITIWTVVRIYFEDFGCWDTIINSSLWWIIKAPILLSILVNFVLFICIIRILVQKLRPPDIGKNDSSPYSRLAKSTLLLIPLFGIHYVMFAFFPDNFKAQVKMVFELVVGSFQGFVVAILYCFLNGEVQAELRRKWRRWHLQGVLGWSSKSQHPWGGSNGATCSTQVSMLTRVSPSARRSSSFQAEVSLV

[2] = target: T2, human VPAC2 receptor (human, UniProt P41587 24-438)
T2 sequence (looked up): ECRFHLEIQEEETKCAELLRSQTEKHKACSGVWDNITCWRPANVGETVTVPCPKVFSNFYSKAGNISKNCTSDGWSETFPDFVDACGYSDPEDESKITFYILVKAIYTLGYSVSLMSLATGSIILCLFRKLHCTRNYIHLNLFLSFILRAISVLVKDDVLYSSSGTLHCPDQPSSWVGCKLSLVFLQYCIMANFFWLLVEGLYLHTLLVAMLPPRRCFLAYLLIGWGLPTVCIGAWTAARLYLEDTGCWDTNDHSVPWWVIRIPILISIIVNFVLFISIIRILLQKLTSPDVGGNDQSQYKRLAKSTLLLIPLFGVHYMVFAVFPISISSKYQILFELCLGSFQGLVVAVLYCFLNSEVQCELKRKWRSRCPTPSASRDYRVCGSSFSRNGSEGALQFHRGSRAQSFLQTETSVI

[3] = target: T3, human PAC1 receptor (human, UniProt P41586 21-468)
T3 sequence (looked up): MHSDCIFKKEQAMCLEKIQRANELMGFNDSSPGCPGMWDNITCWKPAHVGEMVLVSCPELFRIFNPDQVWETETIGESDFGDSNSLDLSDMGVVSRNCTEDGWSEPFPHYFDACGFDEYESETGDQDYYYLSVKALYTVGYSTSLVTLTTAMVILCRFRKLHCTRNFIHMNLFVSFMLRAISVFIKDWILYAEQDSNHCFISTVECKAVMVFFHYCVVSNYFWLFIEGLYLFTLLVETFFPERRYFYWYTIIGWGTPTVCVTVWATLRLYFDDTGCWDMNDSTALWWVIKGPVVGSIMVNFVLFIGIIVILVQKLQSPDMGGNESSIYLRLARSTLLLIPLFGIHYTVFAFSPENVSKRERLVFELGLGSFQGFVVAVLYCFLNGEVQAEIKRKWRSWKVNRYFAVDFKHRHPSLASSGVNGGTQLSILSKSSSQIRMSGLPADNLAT

[4] = target: T4, human VPAC1 receptor (human, UniProt P32241 31-457)
T4 sequence (looked up): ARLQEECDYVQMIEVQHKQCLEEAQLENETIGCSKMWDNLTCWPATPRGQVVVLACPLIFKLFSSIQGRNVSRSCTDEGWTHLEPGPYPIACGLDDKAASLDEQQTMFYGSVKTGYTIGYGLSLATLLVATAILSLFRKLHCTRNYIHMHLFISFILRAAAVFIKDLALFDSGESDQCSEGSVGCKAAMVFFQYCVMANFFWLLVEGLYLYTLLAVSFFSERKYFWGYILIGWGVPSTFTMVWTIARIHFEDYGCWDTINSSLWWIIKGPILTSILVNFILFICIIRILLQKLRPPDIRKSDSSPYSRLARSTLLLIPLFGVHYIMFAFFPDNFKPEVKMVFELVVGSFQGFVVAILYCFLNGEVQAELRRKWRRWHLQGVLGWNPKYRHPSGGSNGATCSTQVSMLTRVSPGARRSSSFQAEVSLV

[5] = target: T5, rat VPAC2 receptor (rat, UniProt P35000 23-437)
T5 sequence (looked up): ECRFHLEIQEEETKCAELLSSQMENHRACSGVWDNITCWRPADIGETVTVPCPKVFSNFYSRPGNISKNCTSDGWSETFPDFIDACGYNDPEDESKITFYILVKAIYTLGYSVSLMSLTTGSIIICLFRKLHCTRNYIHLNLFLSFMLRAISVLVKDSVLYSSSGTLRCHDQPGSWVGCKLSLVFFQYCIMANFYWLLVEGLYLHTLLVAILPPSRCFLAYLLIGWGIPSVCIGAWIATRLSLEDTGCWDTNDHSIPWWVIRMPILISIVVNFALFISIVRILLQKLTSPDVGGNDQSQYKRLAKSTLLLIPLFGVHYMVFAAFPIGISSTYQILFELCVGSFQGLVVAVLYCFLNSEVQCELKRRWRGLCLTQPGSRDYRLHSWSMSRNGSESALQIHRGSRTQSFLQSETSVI

Binder | EC50 cAMP, DiscoveRx [1] [nM] | EC50 cAMP, Alpha Screen [2] [nM] | EC50 cAMP, DiscoveRx [3] [nM] | EC50 cAMP, DiscoveRx [4] [nM] | EC50 cAMP, DiscoveRx [2] [nM] | EC50 cAMP, DiscoveRx [5] [nM]
B1 | 0.85 | 0.18 | – | – | – | –
B2 | 1.12 | 0.36 | – | – | – | –
B3 | 1.56 | 0.13 | – | – | – | –
B4 | – | – | 13.4 | 0.65 | 3.44 | –
B5 | – | – | 94.7 | 41 | 20.3 | –
B6 | – | – | 104 | 8.48 | 6.39 | –
B7 | – | – | 0.9 | > 1000 | > 1000 | –
B8 | – | – | 137 | 17 | 13.2 | –
B9 | – | – | 145 | 0.4 | 2.72 | –
B10 | – | – | 1.4 | < 1000 | > 1000 | –
B11 | – | – | 0.1 | 221 | > 1000 | –
B12 | – | – | 0.7 | > 1000 | > 1000 | –
B13 | – | – | 15.9 | 0.8 | 3.88 | –
B14 | – | – | 20.7 | 27.4 | 4.89 | –
B15 | 0.66 | 0.1 | – | – | – | –
B16 | 5.81 | 0.07 | – | – | – | –
B17 | 61.1 | 2.17 | – | – | – | –
B18 | – | – | – | – | – | 0.15
B19 | 0.67 | 0.13 | – | – | – | –
B20 | 3.81 | 0.1 | – | – | – | –
B21 | 2.39 | 0.21 | – | – | – | –
B22 | 212 | 0.92 | – | – | – | –
B23 | 0.95 | 0.2 | – | – | – | –
B24 | – | 0.18 | – | – | – | 0.1
B25 | – | 0.29 | – | – | – | 0.11
B26 | 0.42 | – | – | – | – | –
B27 | – | 0.18 | – | – | – | 0.05
B28 | 3.02 | 0.23 | – | – | – | –
